Measured values from US20150105327.

What was measured:
[1] = test system: tailless histone H2A (N- and C-terminal tails deleted)
[2] = test system: recombinant histone H4
[3] = test system: recombinant histone H2B
[4] = test system: histone H2A T120A mutant
[5] = test system: H2A with mutations of six other potential modification sites on the tail domains
[6] = test system: recombinant human histone H2A (wild type)
[7] = test system: recombinant histone H3

Sequence of recombinant His-VprBP wild type (chain, as listed by the source): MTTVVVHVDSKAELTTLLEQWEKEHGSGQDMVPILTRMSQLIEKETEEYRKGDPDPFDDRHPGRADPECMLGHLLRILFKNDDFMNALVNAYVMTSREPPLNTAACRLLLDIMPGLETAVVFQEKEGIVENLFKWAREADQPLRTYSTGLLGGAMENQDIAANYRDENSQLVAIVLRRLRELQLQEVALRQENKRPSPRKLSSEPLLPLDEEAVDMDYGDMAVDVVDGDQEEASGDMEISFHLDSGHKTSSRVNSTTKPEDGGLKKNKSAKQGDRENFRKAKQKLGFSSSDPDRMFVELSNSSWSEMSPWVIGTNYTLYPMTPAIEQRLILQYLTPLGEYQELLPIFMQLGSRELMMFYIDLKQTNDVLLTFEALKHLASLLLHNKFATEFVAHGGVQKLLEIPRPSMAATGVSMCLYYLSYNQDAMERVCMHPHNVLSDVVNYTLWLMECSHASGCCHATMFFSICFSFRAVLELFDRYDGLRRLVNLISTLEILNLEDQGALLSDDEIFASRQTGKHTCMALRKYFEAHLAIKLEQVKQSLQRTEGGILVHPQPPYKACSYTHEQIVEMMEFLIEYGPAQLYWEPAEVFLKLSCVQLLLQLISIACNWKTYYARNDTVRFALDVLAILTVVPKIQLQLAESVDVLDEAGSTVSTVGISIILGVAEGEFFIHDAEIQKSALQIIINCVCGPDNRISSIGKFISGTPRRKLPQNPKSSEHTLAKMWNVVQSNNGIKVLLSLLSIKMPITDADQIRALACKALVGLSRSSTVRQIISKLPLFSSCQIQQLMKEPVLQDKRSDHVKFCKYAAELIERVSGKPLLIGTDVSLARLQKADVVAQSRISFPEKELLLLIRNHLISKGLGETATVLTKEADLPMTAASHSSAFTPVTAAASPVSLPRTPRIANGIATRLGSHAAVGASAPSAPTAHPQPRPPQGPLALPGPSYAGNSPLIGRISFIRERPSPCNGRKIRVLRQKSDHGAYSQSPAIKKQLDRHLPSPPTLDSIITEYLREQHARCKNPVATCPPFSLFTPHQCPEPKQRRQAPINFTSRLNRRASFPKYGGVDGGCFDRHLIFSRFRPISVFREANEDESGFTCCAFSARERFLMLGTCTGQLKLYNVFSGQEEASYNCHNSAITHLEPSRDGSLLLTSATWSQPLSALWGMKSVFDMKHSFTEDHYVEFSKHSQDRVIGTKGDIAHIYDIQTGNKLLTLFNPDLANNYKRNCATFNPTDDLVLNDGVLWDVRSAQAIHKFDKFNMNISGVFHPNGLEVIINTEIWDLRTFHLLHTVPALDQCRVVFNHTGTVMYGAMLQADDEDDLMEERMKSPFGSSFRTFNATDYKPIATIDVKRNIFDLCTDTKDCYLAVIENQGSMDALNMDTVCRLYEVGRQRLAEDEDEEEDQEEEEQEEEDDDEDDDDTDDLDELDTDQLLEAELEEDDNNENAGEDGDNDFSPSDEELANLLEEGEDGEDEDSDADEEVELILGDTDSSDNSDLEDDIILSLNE
Sequence of VprBP kinase-dead mutant K194R (chain, as listed by the source K194R): as the sequence (chain, as listed by the source) above, with K194R counted along it

Substance	H2A phosphorylation in nucleosomes, in vitro kinase assay, autoradiography [1]	phosphorylation of free individual histones, in vitro kinase assay with [g-32P]-ATP, autoradiography [2]	phosphorylation of free individual histones, in vitro kinase assay with [g-32P]-ATP, autoradiography [3]	H2A phosphorylation in nucleosomes, in vitro kinase assay, autoradiography [4]	H2A phosphorylation in nucleosomes, in vitro kinase assay, autoradiography [5]	phosphorylation of H2A in reconstituted nucleosomes, in vitro kinase assay, autoradiography [6]	phosphorylation of free individual histones, in vitro kinase assay with [g-32P]-ATP, autoradiography [6]	phosphorylation of free individual histones, in vitro kinase assay with [g-32P]-ATP, autoradiography [7]	H2A phosphorylation in nucleosomes, in vitro kinase assay, autoradiography [6]
recombinant His-VprBP wild type	simultaneous deletion of the N- and C-terminal tails of H2A blocks H2A phosphorylation by VprBP	a robust phosphorylation of H2A, but not other core histones	a robust phosphorylation of H2A, but not other core histones	VprBP-mediated phosphorylation is completely abolished by mutation of T120	mutations of six other potential modification sites on the tail domains had little effect	VprBP generated clear labeling of H2A in the nucleosome after autoradiography	Autoradiograph of the kinase reaction products showed a robust phosphorylation of H2A, but not other core histones	a robust phosphorylation of H2A, but not other core histones	
VprBP kinase-dead mutant K194R									mutation of this lysine residue completely abrogated kinase activity
